# Measurements from a protein production outcome set (Wang et al. 2014).
# Test: label from the status in PepcDB records
row,Sequence,protein production
1,ITERKQIEEALQKSGQRLRMTLESTSTNWWERDLITDQADWSEQSDHLLGYTPDSYEKNQDTFYKLVHPDDREHVQAGVNLAIATGEPYQGEFRLVQADGNCIWILGTGHVEYNEAGQPVRMSGLNIN,failed
2,MPSGRTHTKINLISLPVVLFMLFSYGLTNFDFLLTFAIGFLVGTTFLTPDLDTYSNAYNKWGFLRIFWYPYKKVMPHRSFFTHTIILGDVIRIAYMLIVFSPFLFLLNVIALDGNLIEMAKEHEVEIVTFVMGIVVASTLHIIADKVNTRRKKMMRKKKKRRR,failed
3,FIFFNQPKTPEESIQLLGAQAGDTESFRVTLDRIPPQIQKLSFTATLDGAGQMSQVAPGYLRIVAGGEEVARYSFTGSEFSTERAVMLGDFYLKDVWRFAAVGQGFDGGLDALL,failed
4,MLVTSLVVKPALSTTLKMCTFSTLSAFVLTACSGNAETTNVAEIQHDMGSATAAASPKATAPEGTVLKRSAIDALQTVGNSIGIKIGSHLELGSAADFEKGNTTKVSIDAECFDMTSSSKAFIVACSDGVHSVDPVSGKNSVIAQPTETAHYAVQVSTGEVLVAHRDSNKVEVFNDGEKLSEVATEYGSDQLISVPIEGQADAVVRINNKYTLIQDVNWKESKPGAILRVGKGVGRISAAKQGVVLASDAKKNQFAVYGAKDVIRLHQTSPTGPSPWGITWDNKHDLAWVATTGDNKVTGYDISSGTGSEKSSYNTIENVHNIAVLDDGTLVLASASGAGLQLVKSQTD,failed
5,MAPKDQAADMDYDQTKKMVVDILKTDDGKKAIKELLNDDAMNEALVIDQDAIKGTIEKTLTSKKGEEFWKNIFEDTDFAEGFAKTLQTEHEKVIKKLMKDPDYQKMLMSVMQDPGMDKKYSQLAKSQEFRSYLEEVINETLSSPLYKKQFEDELKKAAKDTAKESELEHHHHHH,not failed
6,MDAKARNCLLQHREALEKDIKTSYIMDHMISDGFLTISEEEKVRNEPTQQQRAAMLIKMILKKDNDSYVSFYNALLHEGYKDLAALLHDGIPVVSSSSGKDSVSGITSYVRTVLCEGGVPQRPVVFVTRKKLVNAIQQKLSKLKGEPGWVTIHGMAGCGKSVLAAEAVRDHSLLEGCFPGGVHWVSVGKQDKSGLLMKLQNLCTRLDQDESFSQRLPLNIEEAKDRLRILMLRKHPRSLLILDDVWDSWVLKAFDSQCQILLTTRDKSVTDSVMGPKYVVPVESSLGKEKGLEILSLFVNMKKADLPEQAHSIIKECKGSPLVVSLIGALLRDFPNRWEYYLKQLQNKQFKRIRKSSSYDYEALDEAMSISVEMLREDIKDYYTDLSILQKDVKVPTKVLCILWDMETEEVEDILQEFVNKSLLFCDRNGKSFRYYLHDLQVDFLTEKNCSQLQDLHKKIITQFQRYHQPHTLSPDQEDCMYWYNFLAYHMASAKMHKELCALMFSLDWIKAKTELVGPAHLIHEFVEYRHILDEKDCAVSENFQEFLSLNGHLLGRQPFPNIVQLGLCEPETSEVYQQAKLQAKQEVDNGMLYLEWINKKNITNLSRLVVRPHTDAVYHACFSEDGQRIASCGADKTLQVFKAETGEKLLEIKAHEDEVLCCAFSTDDRFIATCSVDKKVKIWNSMTGELVHTYDEHSEQVNCCHFTNSSHHLLLATGSSDCFLKLWDLNQKECRNTMFGHTNSVNHCRFSPDDKLLASCSADGTLKLWDATSANERKSINVKQFFLNLEDPQEDMEVIVKCCSWSADGARIMVAAKNKIFLFDIHTSGLLGEIHTGHHSTIQYCDFSPQNHLAVVALSQYCVELWNTDSRSKVADCRGHLSWVHGVMFSPDGSSFLTSSDDQTIRLWETKKVCKNSAVMLKQEVDVVFQENEVMVLAVDHIRRLQLINGRTGQIDYLTEAQVSCCCLSPHLQYIAFGDENGAIEILELVNNRIFQSRFQHKKTVWHIQFTADEKTLISSSDDAEIQVWNWQLDKCIFLRGHQETVKDFRLLKNSRLLSWSFDGTVKVWNIITGNKEKDFVCHQGTVLSCDISHDATKFSSTSADKTAKIWSFDLLLPLHELRGHNGCVRCSAFSVDSTLLATGDDNGEIRIWNVSNGELLHLCAPLSEEGAATHGGWVTDLCFSPDGKMLISAGGYIKWWNVVTGESSQTFYTNGTNLKKIHVSPDFKTYVTVDNLGILYILQTLE,failed
7,MNEISVVLPAYNEEENIQKLVKRWQQLCKDLKYKYELSLNIFVIDDGSKDKTEVIGRELERKYDNFYLIKHDKNKGLGEAINTGIKYVMEKRSDSKYVCIMDCDNTQDPRYVFSMIEKMEKTDVVIASRYQKGSCVKGVPFFRLTASYGARFVYTIFLGVKNVRDYTCGYRLYRTSALKTAFKVFGESFIEESGFTCMVELLYKLNICGAVFKEVPFTLRYDFKGGVSKMKVLITAINSVKLTLRLKKIRKGVEPVLEDLEHHHHHH,failed
8,EIKLEDVLIKRRSVREYCSSPLTLRELSHILFAAYGVTDERGFKTVPSAGATYPLEIYVNVRDVVGVEEGVYKYIPERHSIVRILDEEVGHELALAALKQMFIAIAPIVLIIAANYERTTRVYGDRGFRYVHMEVGHVAQNVYLMATSLGLGTVSVGAFYDNEIREILKIKEYPLLLMPVG,failed
9,MGHHHHHHSHMDDIFTQCREGNAVAVRLWLDNTENDLNQGDDHGFSPLHWACREGRSAVVEMLIMRGARINVMNRGDDTPLHLAASHGHRDIVQKLLQYKADINAVNEHGNVPLHYACFWGQDQVAEDLVANGALVSICNKYGEMPVDKAKAPLRELLRERAEK,not failed
10,TKALNFTYTLDSGVKGTLYQFPAEYTLLFINNPGCHACAEMIEGLKASPVINGFTAAKKLKVLSIYPDEELDEWKKHRNDFAKEWTNGYDKELVIKNKNLYDLRAIPTLYLLDKNKTVLLKDATLQKVEQYLAERG,not failed
11,MDAEKKSAHFRQISSYKPQLLVLSSIQENPSSKISEKANIKADNDAEIGVFGAEKYFSMKLDHVDSTADITKQHEKENTHDHPNANPNPNPNPHPHPHPQLTKTTSSRSKTSRHGTPSVRSESSCNSQTFLMRINNHNENKQRKMNDTSISFGGFRCYGPCSGVKTVHTDPKNSCKSRNSDRDFVAYDARKHNDKPRLHFEAKKADFHAQEKISLPIQRSDIAMNLERKLSLLTWDAIPNQLSTKNNNHNNNGNNSSMSSNTQEEETASVASSDLFEIENITSSVYEPSEASIGWSVVTGSMADQSVISDFDMMKRVTRNGPVVKTKPVIGEKVRSAGFLSGCKSHKAVSVVDSSRKVKETAKVDHHEMSHQKKFKTEIRIQDLSFL,failed
12,MLVRTLSALECTKVLTANRVGRLACAKDGQPYVVPLYYAYSDAHLYAFSMPGKKIEWMRANPRVSVQVDEHGQGRGWKSVVVDGRYEELPDLIGHKLQRDHAWSVLSKHTDWWEPGALKPVTPPTADSAPHVFFRILIEQVSGREASE,not failed
13,MRRTVRYILATSNPMGDLEALEKFVKLAPDTGADAIALIGNLMPKAAKSRDYAAFFRILSEAHLPTAYVPGPQDAPIWEYLREAANVELVHPEMRNVHETFTFWRGPYLVAGVGGEIADEGEPEEHEALRYPAWVAEYRLKALWELKDYPKIFLFHTMPYHKGLNEQGSHEVAHLIKTHNPLLVLVAGKGQKHEMLGASWVVVPGDLSEGEYSLLDLRARKLETGNVR,not failed
14,MIPGMNAKQMKKMERQMKKMGMDMKDLKGVKEVIIRLEDKELVIPNAEVSLMNVMGQETYQVTGKAHEVAIDEELVIPDEDIEMVANQANVSEDEAKAALEDTNGDLAEAILKLNQ,failed
15,MKTKIAYEEVAGMLNQWYVMIKRHEVSQAVSIKCDIEHQLPNMEENQDLLLYFNLLDYRHKLLTEEFAASNKLFEDIQEQKADMQSTDDMIEYYYFFFAGMYEFHKKDYTNAINYYKLAEEKLRTIPDQIEIAEFHYKLAIAYYQIKQNFLSLNHAKTALKTFKAHDDYIQKAISNDMLIGANKLDLFRFDEAEQHYKQALKDAALIKHHVLLGMAHHNLGLSYVNRNLLTLAEHHFKEALLIKEHEESVYGIHSMFELTHVLYKSNVVKEARKLYEKGFFRAEKAGEREYLSKFKLIHALYDEQDPLTVEHALEYLKTINLWTDVAELTFDIALYYKENGDADKAAEYFEESHHARDQILKRTEELK,failed
16,INKLYAINANLEESELRFRSAFNSAAIGMAIVSLEGMWLKVNQSLCQIVGYSEEELLETNFQSITHPEDLELDLGYVRQLLEGDIRFYHMEKRYIHKNGSVIWILLSASLIRDLDNKPLYFISQIQNID,failed
17,MAASDSRNNRADEPGFVVQPKGEHRVIIVWLHDKDERSSDSLQFVEQLNLKNVKWICPSLVFPDSFIKGVGGLGMGAAVALHFATSCALNHYTINPRVVVGISGWLSNSGSLKRSIESASHGAPARAASQSIFITHGICKSNRLLFQCDSVPHPCDCGEEAVLSLREAGFRDVKFTPFARFGPTAHENNRNVMVKSWLEEKLQLDVTIP,failed
18,MRILAIVKRIVNQFRRDKRTLALMFLAPLLLITLLTYLFEGDTVKPVVGVNGLSSSMVKELKENDLTIKTYPDNTNATAKIKDADLDAFFQQDGEKIKVTYENSEPSLSKEIGLKLQKALMAEQQVQVKKQAKTTGEALAKAGIDPNSLPALTNSPEKLTISTDYVYGDKDTSFFDTISPIFIGFFVFFFVFLIAGISFLRERTTGTLERLMATPIKRIELELGYLIGFGIFALLQSILVAVFSIQVLGMMQNGSLFYVLLITLTLGMVSLALGILLSTFANNEFQIVQFIPIVIVPQVLFCGIFPLDGMADWLVWIAHIMPLYYGANALTSIMVKGEGFASFANDFYILLGFVIIFVVLNIFALKKYRKV,failed
19,MVMPESHIHNIPMEQCVLVALMTFALSYELIAQDLDEGCFYPERHKQIYNAIVELANENQPYDVVMVEQRLKSKNLLHVLGGEQYLKIMLAEAPSSFHSMEPYITQLKKLKAHRQVEWLGQRISSMAQDTTQPDVFAEAENILGQVDNQEQSDQGMSFEAALDMALTEMIEKAEAKDKQQFTGVKFNLKHLDELLGTVQKGHFCVVGGRPGSGKSTLAQMLALDTASSFGKGVLFISAEMDQSTLANRMISALGLIPYHNIHNAELYNGLMKDYADAKAAYQRLPIWIQPKQKPSLSEVRSYARRAKRRYKELGCIIVDYLQLLRDPSKKDRFQEVSSISRELKSMAKEFECPVIALVQLNREAEKGKRPKASDIKESGQIEQDADQIILVNPLTDPEDSTKPMGITELIVVKNRHGKRGAVRVLDYLETCRFRSVEEQAEP,failed
20,MADNSATRVRVPSDRNSRRKIKGEVDIISSLPDVILQHILFSFQTKYAIRTSVLSKRWRHEADAINKALSQYTAPKMMNFHLKINKNNSLHHIKKWTEFAMSRNVENMSLDVRFRSNKIPRFYEINSSVKSLSHRLDLHDVIPRHGVSWTSLKKFSLSYCGLPDESAKILSGCPILEWPMQIVAPQIHCLKLRNTQLPCTLVDVSSLTEAEVLDIIIFPVNLSYNADFLHATMLEMLKKLKNVEKLTFSGSYLQNLSVAEKRGVPFPMFKVKALTLEMKHFVISDIERMLQSSPNLKKLTVRAKDNTGKYLYRYFARLESGSMLELKKGV,failed
21,MADPIRIFIGSGEASRIERQVAIDSLQRMTDRPLAITAFNGTHNALEVLGEPPRPAPMSLRVKYWNATEFSLYRFLIPELCGYQGRAIYIDSDVVCLHDIGELFDTDLEGADFLAKAEAYPDRAGALWGLSVVLFDCDRCRFPLEQFIDELEAGVYDYRDLPCMGPRFLNKRPYQIGALDPRWNSFDFADRETRLIHYTDLKRQPWKRPGHPYGDLWFKAMQQALDSGILTDTEISQAIKRFNVRDDIREGNRPRWLTRQRLRSWLRQVKQQLRPVKV,failed
22,MTQLQQSVIESQPGKLSDYLGHTRRNRFSIRLFSGLIGFILVLAVMATGYWLVFASDRYVSEASVIIRKTDSVTAPSFDLSMLIAGVAGVNRADQLLLREYLLSVDMLKKLDTELDLHAHYSDEHYDLLSRMWLKDMEWFHRHYLSRVSIEYDDYAGVLRINAQAYDPEIARAISNLLVREGERYMNQISHELAETQVSFLTTQVNLAQLRFQQVRQKLLAYQNKKGLLSPQATVESLNTLIAKLEEQRAQLKTQLASLPRTLDRNHPNLVMLRQSLAAIDRQITDEKAKLANPTGKTLNITMEEFQRLEMEVTFAQELYKAALTALEKGRIDATRMLDKVSVLQAPTLPEYPMEPRRIYNTLVTLLFALMLAGILKLLEGIILDHVD,failed
